Source: patent US11833164B2, “Methods of treating Fabry disease in patients having a mutation in the GLA gene” (Amicus Therapeutics, Inc., priority 2019, dated 2023)

B1: I367M (protein)
chain: MQLRNPELHLGCALALRFLALVSWDIPGARALDNGLARTPTMGWLHWERFMCNLDCQEEPDSCISEKLFMEMAELMVSEGWKDAGYEYLCIDDCWMAPQRDSEGRLQADPQRFPHGIRQLANYVHSKGLKLGIYADVGNKTCAGFPGSFGYYDIDAQTFADWGVDLLKFDGCYCDSLENLADGYKHMSLALNRTGRSIVYSCEWPLYMWPFQKPNYTEIRQYCNHWRNFADIDDSWKSIKSILDWTSFNQERIVDVAGPGGWNDPDMLVIGNFGLSWNQQVTQMALWAIMAAPLFMSNDLRHISPQAKALLQDKDVIAINQDPLGKQGYQLRQGDNFEVWERPLSGLAWAVAMINRQEIGGPRSYTMAVASLGKGVACNPACFITQLLPVKRKLGFYEWTSRLRSHINPTGTVLLQLENTMQMSLKDLL
B2: A368G (protein)
chain: MQLRNPELHLGCALALRFLALVSWDIPGARALDNGLARTPTMGWLHWERFMCNLDCQEEPDSCISEKLFMEMAELMVSEGWKDAGYEYLCIDDCWMAPQRDSEGRLQADPQRFPHGIRQLANYVHSKGLKLGIYADVGNKTCAGFPGSFGYYDIDAQTFADWGVDLLKFDGCYCDSLENLADGYKHMSLALNRTGRSIVYSCEWPLYMWPFQKPNYTEIRQYCNHWRNFADIDDSWKSIKSILDWTSFNQERIVDVAGPGGWNDPDMLVIGNFGLSWNQQVTQMALWAIMAAPLFMSNDLRHISPQAKALLQDKDVIAINQDPLGKQGYQLRQGDNFEVWERPLSGLAWAVAMINRQEIGGPRSYTIGVASLGKGVACNPACFITQLLPVKRKLGFYEWTSRLRSHINPTGTVLLQLENTMQMSLKDLL
B3: A368P (protein)
chain: MQLRNPELHLGCALALRFLALVSWDIPGARALDNGLARTPTMGWLHWERFMCNLDCQEEPDSCISEKLFMEMAELMVSEGWKDAGYEYLCIDDCWMAPQRDSEGRLQADPQRFPHGIRQLANYVHSKGLKLGIYADVGNKTCAGFPGSFGYYDIDAQTFADWGVDLLKFDGCYCDSLENLADGYKHMSLALNRTGRSIVYSCEWPLYMWPFQKPNYTEIRQYCNHWRNFADIDDSWKSIKSILDWTSFNQERIVDVAGPGGWNDPDMLVIGNFGLSWNQQVTQMALWAIMAAPLFMSNDLRHISPQAKALLQDKDVIAINQDPLGKQGYQLRQGDNFEVWERPLSGLAWAVAMINRQEIGGPRSYTIPVASLGKGVACNPACFITQLLPVKRKLGFYEWTSRLRSHINPTGTVLLQLENTMQMSLKDLL
B4: V369A (protein)
chain: MQLRNPELHLGCALALRFLALVSWDIPGARALDNGLARTPTMGWLHWERFMCNLDCQEEPDSCISEKLFMEMAELMVSEGWKDAGYEYLCIDDCWMAPQRDSEGRLQADPQRFPHGIRQLANYVHSKGLKLGIYADVGNKTCAGFPGSFGYYDIDAQTFADWGVDLLKFDGCYCDSLENLADGYKHMSLALNRTGRSIVYSCEWPLYMWPFQKPNYTEIRQYCNHWRNFADIDDSWKSIKSILDWTSFNQERIVDVAGPGGWNDPDMLVIGNFGLSWNQQVTQMALWAIMAAPLFMSNDLRHISPQAKALLQDKDVIAINQDPLGKQGYQLRQGDNFEVWERPLSGLAWAVAMINRQEIGGPRSYTIAAASLGKGVACNPACFITQLLPVKRKLGFYEWTSRLRSHINPTGTVLLQLENTMQMSLKDLL

Test system: mutant form of α-Gal A expressed in HEK-293 cells
Assay: HEK assay (GLP HEK / Migalastat Amenability Assay): α-Gal A activity in lysates of transiently transfected HEK-293 cells incubated with or without 10 μM migalastat
Type: cell-based, human
Conditions: for Absolute increase (% WT) / Relative increase: 10 μM migalastat versus baseline; for Baseline α-Gal A activity (% WT): absence of migalastat; for Baseline α-Gal A activity (% WT) / 10 μM migalastat α-Gal A activity (% WT): percentage of baseline wild-type α-Gal A activity; for Baseline α-Gal A activity (% WT) / Baseline α-Gal A activity / 10 μM migalastat α-Gal A activity / 10 μM migalastat α-Gal A activity (% WT): mean ± SEM; for Baseline α-Gal A activity / 10 μM migalastat α-Gal A activity: lysates of HEK-293 cells transiently transfected with the mutant form; for Baseline α-Gal A activity: incubated 5 days in absence of migalastat; for 10 μM migalastat α-Gal A activity: incubated 5 days with 10 μM migalastat; for 10 μM migalastat α-Gal A activity (% WT): with 10 μM migalastat, 5 days
Summary of the method: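 Activity reported as 4-MU released (nmol/mg/hr), mean±SEM, from lysates of transiently transfected HEK-293 cells expressing mutant α-Gal A, cultured with or without 10 μM migalastat.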

Row | Molecule | Absolute increase (% WT) | Relative increase | Baseline α-Gal A activity (% WT) | Baseline α-Gal A activity [nmol/mg/h] | 10 μM migalastat α-Gal A activity [nmol/mg/h] | 10 μM migalastat α-Gal A activity (% WT)
1 | B1 | 22.3 | 1.3 | 76.7 ± 3.9 | 28430 ± 1769 | 36008 ± 2249 | 99 ± 6.7
2 | B2 | 30.9 | 1.3 | 83.9 ± 4.7 | 31616 ± 2552 | 42198 ± 2923 | 114.8 ± 7.8
3 | B3 | 25.7 | 1.3 | 91.7 ± 4.6 | 26402 ± 926 | 33525 ± 1803 | 117.4 ± 8.7
4 | B4 | 38.6 | 1.5 | 77.6 ± 5 | 23968 ± 1797 | 35925 ± 2462 | 116.2 ± 6.3
